The record followed here is US20250121104A1 (FUSION PHARMACEUTICALS, published 2025).

As usually defined, the Kd is the equilibrium constant for the complex coming apart.

Test [1] addresses T1, EGFR and cMET co-expressed on the surface of tumour cell lines (HCC827, HT29, H441, H1975) (UniProt P00533 25-1210; P08581 25-1390).
T1 construct: whole, on cells; Target of the bispecific molecules on cells that carry both receptors; the cell line of each value stands under assay; also called EGFR and c-MET expressing cell line; EGFR and/or cMET expressing cell lines
Kind of test: saturation radioligand binding on HCC827 cells, 4 C, specific binding (4 µM cold antibody for non-specific), single-site fit. As for the experimental part:
(§1) The purpose of this assay was to ensure that the radioimmunoconjugates maintained the binding characteristics of the native antibody in EGFR and/or cMET expressing cell lines including HT29, H441, HT29, HCC827, and H1975. One day prior to the experiment, cells (1.5-2×10⁵) were seeded in 48-well microplates in 500 μL supplemented medium. At the start of the assay, cells were washed with PBS once and then treated with increasing concentrations of Compound E (0.05 nM to 100 nM) in the absence and presence of 4 μM cold antibody [total binding (TB) and non-specific binding (NSB) respectively]. Plates were incubated at 4° C. for about 3 hours with mild shaking. Following incubation, the cells were washed twice with PBS and were then lysed with 1% Triton-X-100. The lysates were transferred to gamma counting tubes and run along with Compound E standards on the Wizard 1470 gamma counter to determine the amount of radioactivity in counts per minute (CPM) for each lysate. The remaining lysate from each well (25 μL) was used for analyzing the protein content using a standard protein quantification assay.

The target in test [2] is T1, EGFR and cMET co-expressed on the …. Kind of test: saturation radioligand binding on HT29 cells, 4 C, specific binding (4 µM cold antibody for non-specific), single-site fit. The protocol:
as §1

Test [3] has the same target. The experiment in a line: saturation radioligand binding on H1975 cells, 4 C, specific binding (4 µM cold antibody for non-specific), single-site fit. As for the experimental part: as §1
Test [4] shares this target. Kind of test: saturation radioligand binding on H441 cells, 4 C, specific binding (4 µM cold antibody for non-specific), single-site fit. The protocol:
as §1

Test [5] addresses T2, Semaphorin 3a (UniProt Q14563 21-771, limits assumed).
T2 sequence (looked up): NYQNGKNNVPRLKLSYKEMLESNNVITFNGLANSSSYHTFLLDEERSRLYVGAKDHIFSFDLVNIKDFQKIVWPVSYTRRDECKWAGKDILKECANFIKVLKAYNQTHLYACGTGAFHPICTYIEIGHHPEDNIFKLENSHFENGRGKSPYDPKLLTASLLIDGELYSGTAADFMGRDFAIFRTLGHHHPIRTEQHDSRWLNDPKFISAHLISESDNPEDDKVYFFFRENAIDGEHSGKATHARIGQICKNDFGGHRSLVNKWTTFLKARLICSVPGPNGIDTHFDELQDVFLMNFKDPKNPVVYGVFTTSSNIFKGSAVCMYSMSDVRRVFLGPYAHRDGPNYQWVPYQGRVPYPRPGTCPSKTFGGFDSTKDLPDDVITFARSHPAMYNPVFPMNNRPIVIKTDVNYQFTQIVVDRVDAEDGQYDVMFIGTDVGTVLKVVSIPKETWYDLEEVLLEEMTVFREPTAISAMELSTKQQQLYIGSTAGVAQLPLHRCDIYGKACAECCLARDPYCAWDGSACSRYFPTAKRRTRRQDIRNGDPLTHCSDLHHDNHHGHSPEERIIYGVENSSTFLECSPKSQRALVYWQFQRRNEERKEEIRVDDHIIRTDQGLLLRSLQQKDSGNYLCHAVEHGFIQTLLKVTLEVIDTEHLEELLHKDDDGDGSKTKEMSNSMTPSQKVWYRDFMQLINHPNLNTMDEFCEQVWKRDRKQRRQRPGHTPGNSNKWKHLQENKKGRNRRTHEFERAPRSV
Kind of test: ELISA, antigen coated at 1 µg/mL, antibody titrated from 10 µg/mL. The protocol:
(§2) Specificity for EGFR and cMET species paralogs and closely related family members was determined by ELISA. Briefly, antigen solutions were prepared in PBS at 1 μg/mL and 50 microliters was coated onto half area ELISA assay plates. Plates were washed and blocked with 1% BSA in PBS containing 0.005% Tween-20 (PBS-T) for one hour at room temperature. […] Wells were incubated with 50 microliters of the indicated primary antibodies diluted in PBS-T in a 1:3 dilution series, starting at 10 μg/mL and ending at 0.002 μg/mL, except for the HER4 binding mAb control, MAB1131, for which the series started at 1 μg/mL. The wells were washed 4 times in PBS-T, then 50 μl of goat anti-human Fab HRP-labeled secondary antibody, diluted 1:5000 in PBS-T, was added to each well and incubated for one hour at room temperature. […] 50 microliters of TMB stop solution was added to all wells and the absorbance was read at 450 nm on a SpectraMax M5 microplate reader. Data were analyzed in the SoftMax Pro 5 software and plotted using GraphPad Prism 7 graphing software.
(§3) To determine the species cross reactivity, ELISA assays were carried out as described above.
(ELISA stands for enzyme-linked immunosorbent assay.)

The target in test [6] is T3, Ron (CD136) (UniProt Q04912 25-957, limits assumed).
T3 sequence (looked up): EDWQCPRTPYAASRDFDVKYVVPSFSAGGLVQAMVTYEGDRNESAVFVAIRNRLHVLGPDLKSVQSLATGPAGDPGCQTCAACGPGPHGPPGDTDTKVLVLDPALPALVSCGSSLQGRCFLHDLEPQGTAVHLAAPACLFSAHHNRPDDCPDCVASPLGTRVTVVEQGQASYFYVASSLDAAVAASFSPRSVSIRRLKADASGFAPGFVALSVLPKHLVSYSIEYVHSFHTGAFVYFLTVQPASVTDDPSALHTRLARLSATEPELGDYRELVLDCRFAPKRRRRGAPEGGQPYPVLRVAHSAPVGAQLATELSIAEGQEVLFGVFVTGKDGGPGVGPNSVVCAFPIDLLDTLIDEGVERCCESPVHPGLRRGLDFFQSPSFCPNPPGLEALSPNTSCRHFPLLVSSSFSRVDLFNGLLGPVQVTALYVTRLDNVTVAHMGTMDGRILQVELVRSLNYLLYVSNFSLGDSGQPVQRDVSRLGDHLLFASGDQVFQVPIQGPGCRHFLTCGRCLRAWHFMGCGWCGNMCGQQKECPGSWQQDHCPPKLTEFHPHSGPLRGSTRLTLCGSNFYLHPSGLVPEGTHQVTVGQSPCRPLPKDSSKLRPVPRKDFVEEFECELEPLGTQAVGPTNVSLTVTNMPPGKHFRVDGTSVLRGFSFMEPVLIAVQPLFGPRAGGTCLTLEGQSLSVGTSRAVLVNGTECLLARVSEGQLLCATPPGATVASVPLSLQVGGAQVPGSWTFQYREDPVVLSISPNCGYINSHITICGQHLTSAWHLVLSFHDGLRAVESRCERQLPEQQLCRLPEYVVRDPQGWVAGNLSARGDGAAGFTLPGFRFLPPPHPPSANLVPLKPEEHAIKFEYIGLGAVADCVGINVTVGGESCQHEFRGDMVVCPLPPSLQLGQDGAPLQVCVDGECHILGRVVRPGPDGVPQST
The test is described as above. As for the experimental part: as §2, §3

In test [7] the target is T4, human EGFR (recombinant, soluble monomeric) (human, UniProt P00533 25-645).
T4 construct: also called EGFR antigen
Kind of test: SPR (BIAcore T200), antibody captured on anti-human IgG, soluble antigen as analyte. A general note: In SPR one partner is held on a chip, and binding of the other changes the refractive index at the surface.

For test [8], the target named is mouse cMET (recombinant) (mouse, UniProt P16056 25-929, limits assumed). Described as above.
Chain of mouse cMET (recombinant) (P16056 25-929 limits assumed): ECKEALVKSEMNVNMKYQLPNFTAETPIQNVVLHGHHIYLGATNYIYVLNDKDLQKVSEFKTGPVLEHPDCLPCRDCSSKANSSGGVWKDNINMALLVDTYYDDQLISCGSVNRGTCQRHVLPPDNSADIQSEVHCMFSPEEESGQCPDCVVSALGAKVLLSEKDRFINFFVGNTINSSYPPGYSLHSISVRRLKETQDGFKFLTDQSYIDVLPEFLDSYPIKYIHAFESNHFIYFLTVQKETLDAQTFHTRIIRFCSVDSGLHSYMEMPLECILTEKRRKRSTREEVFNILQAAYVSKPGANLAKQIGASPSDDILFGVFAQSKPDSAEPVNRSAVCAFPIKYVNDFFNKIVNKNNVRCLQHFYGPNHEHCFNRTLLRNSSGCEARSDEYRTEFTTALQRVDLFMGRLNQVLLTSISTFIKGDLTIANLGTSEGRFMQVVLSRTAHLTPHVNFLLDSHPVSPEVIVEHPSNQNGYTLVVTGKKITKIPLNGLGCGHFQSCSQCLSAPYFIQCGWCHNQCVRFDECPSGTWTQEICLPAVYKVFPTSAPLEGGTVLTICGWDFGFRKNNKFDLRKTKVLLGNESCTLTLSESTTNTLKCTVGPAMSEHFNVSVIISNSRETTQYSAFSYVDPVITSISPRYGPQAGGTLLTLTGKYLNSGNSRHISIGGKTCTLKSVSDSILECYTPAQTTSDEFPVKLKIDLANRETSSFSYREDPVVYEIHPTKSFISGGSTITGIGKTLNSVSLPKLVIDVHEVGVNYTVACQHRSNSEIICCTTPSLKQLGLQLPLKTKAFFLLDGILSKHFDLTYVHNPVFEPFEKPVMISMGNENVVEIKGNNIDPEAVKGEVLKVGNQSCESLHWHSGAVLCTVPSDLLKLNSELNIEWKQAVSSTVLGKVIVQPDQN
Test [9] deals with T5, cynomolgus monkey EGFR (recombinant, soluble monomeric) (cynomolgus monkey, UniProt P55245 25-645 (rhesus entry)).
T5 construct: also called cyno EGFR
The description is as above.

In test [10] the target is T6, mouse EGFR (recombinant) (mouse, UniProt Q01279 25-647).
T6 construct: also called murine EGFR
The description is as above.

The target of test [11] is T7, cynomolgus monkey cMET (recombinant, soluble monomeric) (cynomolgus monkey, UniProt A0M8R7 25-932 (Papio anubis entry)).
T7 construct: also called cyno cMET
T7 sequence (A0M8R7 25-932 S170N/I621T): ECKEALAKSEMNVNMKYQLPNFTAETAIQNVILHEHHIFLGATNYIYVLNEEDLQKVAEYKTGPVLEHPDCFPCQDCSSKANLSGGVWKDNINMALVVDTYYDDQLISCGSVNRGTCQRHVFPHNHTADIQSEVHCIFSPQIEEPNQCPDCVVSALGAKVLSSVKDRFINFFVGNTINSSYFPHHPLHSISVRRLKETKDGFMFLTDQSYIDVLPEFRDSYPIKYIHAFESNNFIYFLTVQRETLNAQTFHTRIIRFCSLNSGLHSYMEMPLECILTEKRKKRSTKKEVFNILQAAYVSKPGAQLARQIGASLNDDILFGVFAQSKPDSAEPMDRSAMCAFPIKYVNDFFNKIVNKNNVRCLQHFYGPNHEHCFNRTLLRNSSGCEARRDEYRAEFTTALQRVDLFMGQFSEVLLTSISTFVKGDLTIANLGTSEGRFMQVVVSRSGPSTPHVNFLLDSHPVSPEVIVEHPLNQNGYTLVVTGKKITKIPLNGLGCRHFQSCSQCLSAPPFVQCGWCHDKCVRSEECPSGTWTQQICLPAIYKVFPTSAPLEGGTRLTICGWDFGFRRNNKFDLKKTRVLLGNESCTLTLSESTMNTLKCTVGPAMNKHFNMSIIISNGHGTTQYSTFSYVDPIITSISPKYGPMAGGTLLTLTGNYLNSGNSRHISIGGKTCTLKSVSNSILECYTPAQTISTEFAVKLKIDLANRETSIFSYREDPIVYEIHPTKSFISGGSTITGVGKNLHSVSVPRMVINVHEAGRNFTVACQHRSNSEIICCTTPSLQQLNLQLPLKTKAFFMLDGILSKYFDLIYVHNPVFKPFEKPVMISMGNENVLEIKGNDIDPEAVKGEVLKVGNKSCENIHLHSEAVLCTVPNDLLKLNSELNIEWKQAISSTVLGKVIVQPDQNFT
The test is described as above.

Test [12] concerns the target T8, human cMET (recombinant, soluble monomeric) (human, UniProt P08581 25-932).
T8 construct: also called cMET antigen; His-tagged cMET antigen
The test is described as above.

T8 sequence (P08581 25-932): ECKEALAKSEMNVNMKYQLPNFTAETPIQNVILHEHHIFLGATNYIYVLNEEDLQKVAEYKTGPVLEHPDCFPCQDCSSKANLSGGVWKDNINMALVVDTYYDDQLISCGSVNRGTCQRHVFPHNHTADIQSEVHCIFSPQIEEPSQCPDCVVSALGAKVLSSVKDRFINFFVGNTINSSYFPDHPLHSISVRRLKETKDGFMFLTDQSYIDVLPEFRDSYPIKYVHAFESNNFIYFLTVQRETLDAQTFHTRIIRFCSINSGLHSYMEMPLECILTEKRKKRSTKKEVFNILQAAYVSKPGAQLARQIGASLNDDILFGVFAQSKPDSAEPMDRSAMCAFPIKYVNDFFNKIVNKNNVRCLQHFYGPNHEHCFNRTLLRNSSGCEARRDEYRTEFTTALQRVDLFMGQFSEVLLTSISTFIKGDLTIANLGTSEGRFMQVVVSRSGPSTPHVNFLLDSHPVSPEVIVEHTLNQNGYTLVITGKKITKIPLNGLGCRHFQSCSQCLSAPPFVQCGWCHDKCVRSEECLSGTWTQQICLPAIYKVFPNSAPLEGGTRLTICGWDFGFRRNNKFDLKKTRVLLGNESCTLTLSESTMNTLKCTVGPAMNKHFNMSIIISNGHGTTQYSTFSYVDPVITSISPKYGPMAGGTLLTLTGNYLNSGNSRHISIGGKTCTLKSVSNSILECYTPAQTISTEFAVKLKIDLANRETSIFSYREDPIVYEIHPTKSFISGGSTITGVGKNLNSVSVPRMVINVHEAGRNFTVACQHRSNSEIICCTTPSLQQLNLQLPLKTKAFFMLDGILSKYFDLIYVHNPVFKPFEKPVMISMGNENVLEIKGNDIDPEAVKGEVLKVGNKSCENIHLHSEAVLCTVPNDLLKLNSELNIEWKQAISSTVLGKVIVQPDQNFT

B1: Compound E, [177Lu]-Compound C-anti-EGFR-cMET conjugate (bispecific antibody, V domains shown)
VH 1: QVQLVQSGAEVKKPGSSVKVSCKASGGTFSDNDFSWVRQAPGQGLEWMGAIVAVFRTETYAQKFQDRVKITADISTRTTYMELSSLRSEDTAVYYCARRLMSAISGPGAPLLMWGQGTLVTVSS
VL 1: QSALTQPRSVSGSPGQSVTISCTGTSSDVGGYNYVSWYQQHPGKAPKLMIYDVSKRPSGVPDRFSGSKSGNTASLTISGLQAEDEADYYCSSYTSSDTLEIFGGGTKLTVL
VH 2: QVQLVQSGAEVKKPGASVKVSCKASGYTFTDYYIHWVRQATGQGLEWMGWMNPNSGNTGYAQKFQGRVTMTRDTSISTAYMELSSLRSEDTAVYYCARGQGYTHSWGQGTMVTVSS
VL 2: DIQMTQSPSTLSASVGDRVTITCRASEGIYHWLAWYQQKPGKAPKLLIYKASSLASGVPSRFSGSGSGTEFTLTISSLQPDDFATYYCQQYSNYPPTFGGGTKLEIK
modifications: 177Lu-DOTA chelate-linker (Compound C) on lysine side chains, sites not stated; 177Lu-DOTA chelate-linker (Compound C) on lysine side chains, sites not stated; chelate-to-antibody ratio 5.3 for the whole antibody
notes: also called [177Lu]-DOTA-anti-EGFR-cMET
On to B1, for which the Kd was roughly 9.9 nM in test [1], roughly 5.7 nM in test [2], roughly 6 nM in test [3] and roughly 15.5 nM in [4].

B2: B09-57 IgG (antibody, V domains shown)
VH: QVQLVQSGAEVKKPGASVKVSCKASGYTFTDYYIHWVRQATGQGLEWMGWMNPNSGNTGYAQKFQGRVTMTRDTSISTAYMELSSLRSEDTAVYYCARGQGYTHSWGQGTMVTVSS
VL: DIQMTQSPSTLSASVGDRVTITCRASEGIYHWLAWYQQKPGKAPKLLIYKASSLASGVPSRFSGSGSGTEFTLTISSLQPDDFATYYCQQYSNYPPTFGGGTKLEIK
notes: also called B09-GL; anti-cMET antibody
Turning to B2, the binding result is given as “no binding (tested: 10 µg/mL)” in [5]; “no binding (tested: 10 µg/mL)” in [6]; “no binding (tested: 200 nM)” in test [7]; “no binding (tested: 200 nM)” in [8]; “no binding (tested: 200 nM)” in [9]; “no binding (tested: 200 nM)” in [10].

B3: RAA22 IgG (antibody, V domains shown)
VH: QVQLVQSGAEVKKPGSSVKVSCKASGGTFSDNDFSWVRQAPGQGLEWMGAIVAVFRTETYAQKFQDRVKITADISTRTTYMELSSLRSEDTAVYYCARRLMSAISGPGAPLLMWGQGTLVTVSS
VL: QSALTQPRSVSGSPGQSVTISCTGTSSDVGGYNYVSWYQQHPGKAPKLMIYDVSKRPSGVPDRFSGSKSGNTASLTISGLQAEDEADYYCSSYTSSDTLEIFGGGTKLTVL
notes: also called anti-EGFR antibody clone RAA22
In the case of B3, the binding result was “no binding (tested: 10 µg/mL)” in test [5]; “no binding (tested: 10 µg/mL)” in [6]; “no binding (tested: 200 nM)” in test [11]; “no binding (tested: 200 nM)” in [12]; “no binding (tested: 200 nM)” in [8].
